According to patent publication US20260184782A1 (TWIST BIOSCIENCE, published 2026):

T1: recombinant human TIGIT (human, UniProt Q495A1 22-141, limits assumed)
T1 construct: recombinant human TIGIT used in Carterra SPR; also called hTIGIT
T1 sequence (looked up): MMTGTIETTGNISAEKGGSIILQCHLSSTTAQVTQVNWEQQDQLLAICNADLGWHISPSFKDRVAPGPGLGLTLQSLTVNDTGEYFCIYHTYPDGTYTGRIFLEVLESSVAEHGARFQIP


Molecular target: T1, recombinant human TIGIT
Assay: SPR Carterra, average
Protocol: Binding affinities of VHH-Fc proteins to recombinant human TIGIT were measured by SPR using a Carterra instrument (Table 10A). […] Average values reported from measurements from 1-2 samples.

Row | Binder | Kd [nM] | koff [s⁻¹] | kon [M⁻¹ s⁻¹]
1 | TIGIT-SC74 (Fc fusion, VHH-Fc fusion in assay) VHH: EVQLVESGGGLVQPGGSLRLSCAASGRTFANNAMGWFRQAPGKEREFVAAINWSGGNTYYADSVKGRFTISADNSKNTAYLQMNSLKPEDTAVYYCAKWSYYGSGLYGMDVWGQGTLVTVSS | 18 | 0.00329 | 183000
2 | TIGIT-SC75 (Fc fusion, VHH-Fc fusion in assay) VHH: EVQLVESGGGLVQPGGSLRLSCAASGFIGNYHAMGWFRQAPGKEREFVAAIRWSDGSSYYADSVKGRFTISADNSKNTAYLQMNSLKPEDTAVYYCAKWSYYGSGLYGMDVWGQGTLVTVSS | 7.44 | 0.000376 | 50500
3 | TIGIT-SC83 (Fc fusion, VHH-Fc fusion in assay) VHH: EVQLVESGGGLVQPGGSLRLSCAASGRTFSDDAMGWFRQAPGKEREFVAAISRSGGNTYYADSVKGRFTISADNSKNTAYLQMNSLKPEDTAVYYCAKWFYYGSGLYTLDVWGQGTLVTVSS | 29.1 | 0.00378 | 132000
4 | TIGIT-SC82 (Fc fusion, VHH-Fc fusion in assay) VHH: EVQLVESGGGLVQPGGSLRLSCAASGSMSSNYAMGWFRQAPGKEREFVAAIDWSGGNTYYADSVKGRFTISADNSKNTAYLQMNSLKPEDTAVYYCAKWFYYGSGLYTLDVWGQGTLVTVSS | 57 | 0.00324 | 56700
5 | TIGIT-SC76 (Fc fusion, VHH-Fc fusion in assay) VHH: EVQLVESGGGLVQPGGSLRLSCAASGFTFSDYAMGWFRQAPGKERELVARIGHDGSTDYADSVKGRFTISADNSKNTAYLQMNSLKPEDTAVYYCLGGLDPWGQGTLVTVSS | 7.64 | 0.00717 | 938000
6 | TIGIT-SC86 (Fc fusion, VHH-Fc fusion in assay) VHH: EVQLVESGGGLVQPGGSLRLSCAASGIIASDSAMGWFRQAPGKEREFVAAIRWSGKETWYADSVKGRFTISADNSKNTAYLQMNSLKPEDTAVYYCARWGGVTFGGVYPLEYWGQGTLVTVSS | 7.14 | 0.00212 | 341000
7 | TIGIT-SC103 (Fc fusion, VHH-Fc fusion in assay) VHH: EVQLVESGGGLVQPGGSLRLSCAASGTITSAVFMGWFRQAPGKEREFVAAISWSGGDTNYADSVKGRFTISADNSKNTAYLQMNSLKPEDTAVYYCARWGGITFGGVYPLDYWGQGTLVTVSS | 34.3 | 0.00498 | 145000
8 | TIGIT-SC88 (Fc fusion, VHH-Fc fusion in assay) VHH: EVQLVESGGGLVQPGGSLRLSCAASGFTFSSDWMGWFRQAPGKEREFVAAINRSGHSTSYADSVKGRFTISADNSKNTAYLQMNSLKPEDTAVYYCARWGGVTFGGVYPLEYWGQGTLVTVSS | 22 | 0.00204 | 92500
9 | TIGIT-SC106 (Fc fusion, VHH-Fc fusion in assay) VHH: EVQLVESGGGLVQPGGSLRLSCAASGFPFDDYAMGWFRQAPGKERELVAVIRWTGMSTHYADSVKGRFTISADNSKNTAYLQMNSLKPEDTAVYYCAKGIAVAGAFDYWGQGTLVTVSS | 7.99 | 0.000753 | 95500
10 | TIGIT-SC55 (Fc fusion, VHH-Fc fusion in assay) VHH: EVQLVESGGGLVQPGGSLRLSCAASGFPFDDYAMGWFRQAPGKERELVAVIRWTGMNTHYADSVKGRFTISADNSKNTAYLQMNSLKPEDTAVYYCAKGIAVAGAFDYWGQGTLVTVSS | 28.5 | 0.00231 | 90600
11 | TIGIT-SC7 (Fc fusion, VHH-Fc fusion in assay) VHH: EVQLVESGGGLVQPGGSLRLSCAASGRSFSMYVMGWFRQAPGKEREGVSFISGSDGSTLYADSVKGRFTISADNSKNTAYLQMNSLKPEDTAVYYCARGSIAARPVFFDYWGQGTLVTVSS | 12.1 | 0.00372 | 306000
12 | TIGIT-SC92 (Fc fusion, VHH-Fc fusion in assay) VHH: EVQLVESGGGLVQPGGSLRLSCAASGSTIENYAMGWFRQAPGKEREFVAAIDWSGGSTYYADSVKGRFTISADNSKNTAYLQMNSLKPEDTAVYYCARWRSIWSGYDDYYYMDVWGQGTLVTVSS | 105 | 0.00289 | 27500
13 | TIGIT-SC91 (Fc fusion, VHH-Fc fusion in assay) VHH: EVQLVESGGGLVQPGGSLRLSCAASGFTFSNYAMGWFRQAPGKEREFVAAINWNSRSTYYADSVKGRFTISADNSKNTAYLQMNSLKPEDTAVYYCARWRSIWSGYDDYYYMDVWGQGTLVTVSS | 5.42 | 0.0071 | 1.31e+06
14 | TIGIT-SC93 (Fc fusion, VHH-Fc fusion in assay) VHH: EVQLVESGGGLVQPGGSLRLSCAASSRTVSSHAMGWFRQAPGKEREFVAAISWSGVTTYYADSVKGRFTISADNSKNTAYLQMNSLKPEDTAVYYCARWRSIWSGYDDYYYMDVWGQGTLVTVSS | 49.9 | 0.00407 | 81500
15 | TIGIT-SC33 (Fc fusion, VHH-Fc fusion in assay) VHH: EVQLVESGGGLVQPGGSLRLSCAASGFLFDSYAMGWFRQAPGKEREFVAAVSQSGLLTFYADSVKGRFTISADNSKNTAYLQMNSLKPEDTAVYYCASRTSSWWWFDPWGQGTLVTVSS | 6.72 | 0.00107 | 182000
16 | TIGIT-SC195 (Fc fusion) VHH: EVQLVESGGGLVQPGGSLRLSCAASGFAFSSDWMGWFRQAPGKEREWVASVLRGGYTWYADSVKGRFTISADNSKNTAYLQMNSLKPEDTAVYYCARGEGFDYWGQGTLVTVSS | 478 | 0.142 | 296000
17 | TIGIT-SC200 (Fc fusion, VHH-Fc fusion in assay) VHH: EVQLVESGGGLVQPGGSLRLSCAASGNTFSGGFMGWFRQAPGKEREWVASVLRGGYTWYADSVKGRFTISADNSKNTAYLQMNSLKPEDTAVYYCTRDGGFDPWGQGTLVTVSS | 5.34 | 0.00143 | 290000
18 | TIGIT-SC198 (Fc fusion, VHH-Fc fusion in assay) VHH: EVQLVESGGGLVQPGGSLRLSCAASGFTFSPSWMGWFRQAPGKEREYVASVLRGGYTWYADSVKGRFTISADNSKNTAYLQMNSLKPEDTAVYYCASEGDPDYWGQGTLVTVSS | 27.6 | 0.00285 | 103000
19 | TIGIT-SC201 (Fc fusion, VHH-Fc fusion in assay) VHH: EVQLVESGGGLVQPGGSLRLSCAASGFTFSPSWMGWFRQAPGKEREWVASVLRGGYTWYADSVKGRFTISADNSKNTAYLQMNSLKPEDTAVYYCTRDGGFDPWGQGTLVTVSS | 1590 | 0.000901 | 567
20 | TIGIT-SC203 (Fc fusion, VHH-Fc fusion in assay) VHH: EVQLVESGGGLVQPGGSLRLSCAASGFTFSPSWMGWFRQAPGKEREWVASVLRGGYTWYADSVKGRFTISADNSKNTAYLQMNSLKPEDTAVYYCARDRGGSDWGQGTLVTVSS | 914 | 0.14 | 153000
21 | TIGIT-SC43 (Fc fusion, VHH-Fc fusion in assay) VHH: EVQLVESGGGLVQPGGSLRLSCAASGFTFADYAMGWFRQAPGKEREMVAAIGWNSGTTEYADSVKGRFTISADNSKNTAYLQMNSLKPEDTAVYYCARDTNGWFFDFWGQGTLVTVSS | 12 | 0.0013 | 112000
22 | TIGIT-SC214 (Fc fusion, VHH-Fc fusion in assay) VHH: EVQLVESGGGLVQPGGSLRLSCAASGFTFGDSWMGWFRQAPGKEHEFVAAIWRSGTLKAYADSVKGRFTISADNSKNTAYLQMNSLKPEDTAVYYCTSYDAVAGTRDFWGQGTLVTVSS | 6.13 | 0.0248 | 4.05e+06
23 | TIGIT-SC70 (Fc fusion, VHH-Fc fusion in assay) VHH: EVQLVESGGGLVQPGGSLRLSCAASGRTFSSFAMGWFRQAPGKEREFVAAISGSGEDTYYADSVKGRFTISADNSKNTAYLQMNSLKPEDTAVYYCARWRLDRRQGFYYAMDVWGQGTLVTVSS | 11.2 | 0.00359 | 321000
24 | TIGIT-SC4 (Fc fusion, VHH-Fc fusion in assay) VHH: EVQLVESGGGLVQPGGSLRLSCAASGSIDRINAMGWFRQATGKEREWVASVLRGGYTWYADSVKGRFTISADNSKNTAYLQMNSLKPEDTAVYYCARDSYSTSFWFDPWGQGTLVTVSS | 6.24 | 0.00222 | 356000
25 | TIGIT-SC122 (Fc fusion, VHH-Fc fusion in assay) VHH: EVQLVESGGGLVQPGGSLRLSCAASGFSFDDYVMGWFRQAPGKEREFVAAISMSGGYTHYADSVKGRFTISADNSKNTAYLQMNSLKPEDTAVYYCAREGYYGSGSYLVYWGQGTLVTVSS | 10.7 | 0.00217 | 524000
26 | TIGIT-SC123 (Fc fusion, VHH-Fc fusion in assay) VHH: EVQLVESGGGLVQPGGSLRLSCAASGSIFSGNTMGWFRQAPGKEREFVAAISWSGAYTEYADSVKGRFTISADNSKNTAYLQMNSLKPEDTAVYYCAREGYYGSGSYLVYWGQGTLVTVSS | 47.3 | 0.00232 | 49100
27 | TIGIT-SC40 (Fc fusion, VHH-Fc fusion in assay) VHH: EVQLVESGGGLVQPGGSLRLSCAASGFSFDRWAMGWFRQAPGKERELVARISWNGGSTYYADSVKGRFTISADNSKNTAYLQMNSLKPEDTAVYYCARDDGWLQFMHWGQGTLVTVSS | 11.4 | 0.0015 | 137000
28 | TIGIT-SC71 (Fc fusion, VHH-Fc fusion in assay) VHH: EVQLVESGGGLVQPGGSLRLSCAASGSIRSLNAMGWFRQAPGKEREFVAAINWDSARTYYADSVKGRFTISADNSKNTAYLQMNSLKPEDTAVYYCARWSAKRHSDTMTYYMDVWGQGTLVTVSS | 10.5 | 0.00436 | 413000
29 | TIGIT-SC9 (Fc fusion, VHH-Fc fusion in assay) VHH: EVQLVESGGGLVQPGGSLRLSCAASGNTFSGGFMGWFRQAPGKEREWVASVLRGGYTWYADSVKGRFTISADNSKNTAYLQMNSLKPEDTAVYYCVNGYSYGRDYWGQGTLVTVSS | 9.35 | 0.00159 | 268000
